Experiments:
Assay in all cases: pull-down; Ni-NTA resin holding histidine tagged fusion pHtrII from cell-free translation; untagged ppR 0.8 mM and pHtrII 0.08 mM mixed in buffer S (300 mM NaCl, 50 mM MES, 5 mM imidazole, pH 6.5) with 0.1% DDM, 1 h, room temperature; eluted ppR read by absorbance at 498 nm
Details in all cases: one partner purified
[1] = target: T1, green fluorescent protein-tagged pHtrII 1-114 (cell-free) (Natronomonas pharaonis, UniProt P42259 1-114)
T1 sequence (looked up): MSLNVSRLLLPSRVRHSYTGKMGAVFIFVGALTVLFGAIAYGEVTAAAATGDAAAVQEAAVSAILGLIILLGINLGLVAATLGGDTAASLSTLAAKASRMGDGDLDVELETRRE

[2] = target: T2, glutathione S-transferase-tagged pHtrII 1-114 (cell-free) (Natronomonas pharaonis, UniProt P42259 1-114)
T2 sequence (looked up): T1 sequence (looked up)

[3] = target: T3, thioredoxin-tagged pHtrII 1-114 (cell-free) (Natronomonas pharaonis, UniProt P42259 1-114)
T3 sequence (looked up): T1 sequence (looked up)

Measured: binding activity relative to pHtrII expressed in E. coli

B1: pharaonis phoborhodopsin (ppR), untagged (natural protein, Natronomonas pharaonis, UniProt P42196 1-239, looked up)
chain: MVGLTTLFWLGAIGMLVGTLAFAWAGRDAGSGERRYYVTLVGISGIAAVAYVVMALGVGWVPVAERTVFAPRYIDWILTTPLIVYFLGLLAGLDSREFGIVITLNTVVMLAGFAGAMVPGIERYALFGMGAVAFLGLVYYLVGPMTESASQRSSGIKSLYVRLRNLTVILWAIYPFIWLLGPPGVALLTPTVDVALIVYLDLVTKVGFGFIALDAAATLRAEHGESLAGVDTDAPAVAD
~50%: all assays above

Source: publication PMC5036783 (Biophysics, 2011)
